Experimental data taken from patent US6984719B1, “Peptide antagonists of prostaglandin F2α receptor” (Hospital Sainte-Justine, priority 1998, dated 2006).
Square brackets hold non-standard residues; d marks the D form. Ends that are not written are not given here.

Legend:
FP receptor = target: T1, FP receptor (Sus scrofa, UniProt C6GAG8); assay: Porcine eyecup model of ex vivo vasomotricity assay, PGF2α-induced constriction of retinal microvessels; set-up: species or system pig; conditions: for change of inhibitory activity of the peptide variant relative to the parent peptide: peptides at 100 μM, porcine retinal vasomotricity assay, structure-activity summary; for % Vasomotor response (of max constriction): compared to maximal constriction without peptide
T1 construct: from tissue; host or cells: eyecup / retinal microvessels of newborn pigs pretreated with ibuprofen
T1 sequence (C6GAG8 1-362): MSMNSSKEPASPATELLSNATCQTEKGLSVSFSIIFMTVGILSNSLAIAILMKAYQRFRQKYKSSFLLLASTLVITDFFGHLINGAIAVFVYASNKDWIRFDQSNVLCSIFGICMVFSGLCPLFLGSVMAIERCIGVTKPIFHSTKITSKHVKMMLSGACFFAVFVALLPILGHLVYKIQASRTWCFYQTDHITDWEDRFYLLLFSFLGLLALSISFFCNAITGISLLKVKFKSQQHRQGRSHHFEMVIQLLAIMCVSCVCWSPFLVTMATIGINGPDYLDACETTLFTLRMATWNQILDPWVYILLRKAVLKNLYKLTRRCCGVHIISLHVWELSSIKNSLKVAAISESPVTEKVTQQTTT
Description: In order to see if the peptides could inhibit FP function using an ex vivo model, we chose porcine eyecup model, an ex vivo assay of vascular constriction in porcine retinas which we previously described and validated (Li et al., 1996 J. Pharmacol. Expt. Therapeut. 278: 370–377; Li et al., 1997 Am. J. Physiol. 273: R1283–90; Abran et al., 1997 Am. J. Physiol. 272: R995–1001). Since FP receptor densities in newborn vasculature are minimal due to down regulation by high levels of circulating prostaglandins in the perinatal period, the newborn pigs were treated with a prostaglandin synthetase blocker, ibuprofen (30 mg/Kg of bodyweight/8 h for 24 h) to increase the density of the receptors as well as their vasomotor effects. By inhibiting circulating prostaglandins, we were able to show potent inhibition of FP receptor-mediated second messenger synthesis as well as FP-mediated vascular constriction in this eyecup model.
To prepare eyecups, a circular incision was made 3–4 mm posterior to ora serrata to remove the […] segment and vitreous body with minimal handling of the retina. The remaining eyecup was fixed with pins to a wax base in a 20 ml tissue bath containing 20 ml of Kreb's buffer (pH 7.35–7.45), protease inhibitors, leupetin and aprotinin (10 μg/ml each), and equilibrated with 21% oxygen and 5% carbon dioxide at 37° C. The preparations were allowed to stabilize for 30 min. Peptides at 100 μM were added and incubation was continued for 30 min before the addition of PGF2α.
Cumulative concentration-responses of PGF2α, and TxA2 mimetic, U46619, (10^−10 to 10^−5 M) curves were constructed separately. To assess the reversibility of the antagonists, the eyecups were thoroughly washed (which would wash away the peptide) with incubation medium and concentration response curves for PGF2α were determined. The outer vessel diameter was recorded with a video camera mounted on a dissecting microscope (Zeiss M 400™) and the responses were quantified by a digital image analyzer (Sigma Scan Software, Jandel Scientific, Corte Madera, Calif.). Vascular diameter was recorded before and 10 min following the topical application of the agent.
^1Percent vasomotor response in the presence of 100 μM peptide is calculated as percent change in average vascular diameter produced by 10^−7 M PGF2α to the eyecup in the presence of the peptide compared to maximal constriction observed in the absence of the peptide.
^2Percent inhibition produced by each peptide is calculated as (100-percent vasomotor response).
Small letters indicate L-amino acids and capital letters indicate D-amino acids. I=isoleucine; L=leucine; G=glycine; H=histidine; R=Arginine; D=Aspartic acid; Y=Tyrosine; K=Lysine; A=Alanine; W=Tryptophan; E=Glutamic acid; F=Phenyl alanine; Q=Glutamine; N=Aspargine; P=Proline; S=Serine; X=Cyclohexyl alanine. Peptides were dissolved in DMSO freshly just before the experiment as 10 mM stocks and added to the eye cups 30 min before the addition of 10^−7 M PGF2α.
These peptides incorporate L- to D-amino acid changes, deletions, subtle variations in aromaticity, hydrogen bond donor status as opposed to ionic interactions and hydrophobicity.

human FP receptor = target: T2, human FP receptor (Homo sapiens, UniProt P43088); assay: PGF2α-induced phosphoinositide hydrolysis (inositol phosphate synthesis) in HEK293 cells expressing FP receptor; type: cell-based; conditions: HEK293 cells stably expressing human FP receptor; 1 μM PGF2α; read-out: half maximal inhibitory concentration, inositol phosphate synthesis
T2 construct: expressed in transfected cells
T2 sequence (P43088 whole entry): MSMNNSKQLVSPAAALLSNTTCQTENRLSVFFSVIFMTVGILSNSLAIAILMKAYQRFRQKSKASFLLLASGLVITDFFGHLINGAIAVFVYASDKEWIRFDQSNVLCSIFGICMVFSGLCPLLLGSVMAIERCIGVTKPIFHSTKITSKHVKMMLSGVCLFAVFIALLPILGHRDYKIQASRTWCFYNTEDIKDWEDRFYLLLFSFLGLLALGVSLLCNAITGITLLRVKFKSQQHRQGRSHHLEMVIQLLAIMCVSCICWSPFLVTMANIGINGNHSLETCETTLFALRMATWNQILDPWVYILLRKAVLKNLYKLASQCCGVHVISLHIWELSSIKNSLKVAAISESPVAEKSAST
Protocol: Both PCP-8 and -10 were tested in HEK293 cells expressing the human FP receptor. For this purpose, HEK 293 cells stably expressing human FP receptor were plated in 12-well plates in DMEM medium containing 10% fetal bovine serum, penicillin (10 U/ml) and streptomycin (10 μg/ml) and cultured in a humidified atmosphere containing 5% CO2 at 37° C. After the wells were 80% confluent, the cells were labeled with 2 μCi/ml of [^3H]-myo inositol overnight. Next day, the cells were washed once with PBS, and incubated in 0.5 ml of Kreb's buffer containing 10 mM LiCl and indicated concentrations of PCP peptides for 30 min. PGF2α at 1 μM was added to the cells and the incubation was carried out for an additional 30 min. The cells were solubilized with 0.1 N NaOH for 10 min and neutralized with 0.1 N formic acid. The lysates were collected and 1 ml each of methanol and chloroform were sequentially added and vortexed briefly. After centrifugation to separate the phases, inositol phosphates were separated by ion exchange chromatography as described below (Berridge, M. J. et al., 1983, Biochem. J. 212:473–482).
Briefly, the medium was discarded and the IP3 synthesis was stopped by adding 0.6 ml ice-cold methanol. The cells were scraped and collected into polypropylene tubes. Distilled water (0.5 ml) and chloroform (0.6 ml) were added and vigorously vortexed for 2 min. The phases were separated by centrifugation at 6000×g for 10 min. The aqueous phase was applied to AG-1X-8™ (Formate form) anion exchange columns (1 ml bed volume) and free inositol was eluted with 10 ml of water, followed by 60 mM ammonium formate in 0.1 M formic acid. Then, the inositol phosphates were eluted with 5 ml of 1.2 M ammonium formate in 0.1 M formic acid. After adding 3 volumes of scintillation cocktail (Optiphase-HiSafe III), the eluates were counted by scintillation spectrophotometry.
Data are expressed as fold stimulation of inositol phosphate synthesis by 1 μM PGF2α compared to the unstimulated controls. […] The half maximal inhibitory concentrations for both PCP-8 and -10 were slightly less than 100 μM.

[1] = 100 μM peptide, 10^−7 M PGF2α, calculated as 100-percent vasomotor response

Substance | change of inhibitory activity of the peptide variant relative to the parent peptide (FP receptor) | % inhibition of maximal response (FP receptor; [1]) [%] | % Vasomotor response (of max constriction) (FP receptor; 100 μM peptide, 10^−7 M PGF2α) [%] | Emax (FP receptor; 100 μM peptide, 10^−7 M PGF2α, calculated as 100-percent vasomotor response, read-out: % inhibition of maximal response) [%] | IC50 (human FP receptor) [µM]
PCP-11: PCP-8 with the N-terminal hydrophobic dipeptide sequence removed (GHRDYK) | significant reduction in the inhibitory action |  |  |  | 
ILGHRDYK-amide ([dI][dL]G[dH][dR][dD][dY][dK]-NH2) [PCP-13.21] | moderate gain of activity | 53.8 | 46.2 |  | 
PCP-13.19: PCP-13 with a serine substitution of D ([dI][dL]G[dH][dR][dS][dY][dK]) | drastic loss of activity |  |  |  | 
PCP-12: PCP-10 with the N-terminal hydrophobic dipeptide sequence removed (DRFYLL) | significant reduction in the inhibitory action |  |  |  | 
ILGFRDYK (Peptide antagonist derived from the sequence of the Prostaglandin F2-alpha receptor.) [PCP-13.11] | did not result in significant reduction of peptide inhibitory potency | 87.0 | 13.0 |  | 
WEDRFYLL [PCP-10, wedrfyll] |  |  | 20.0 | 80 | < 100
ILGHRNYK (Peptide antagonist derived from the sequence of the Prostaglandin F2-alpha receptor.) [PCP-13.14] | moderate loss of activity | 59.7 | 40.3 |  | 
PCP-13.16: PCP-13 with glycine changed to proline ([dI][dL][dP][dH][dR][dD][dY][dK]) | loss of activity |  |  |  | 
YQDRFYLL (Peptide antagonist derived from the sequence of the Prostaglandin F2-alpha receptor.) [PCP-14] |  | 64.0 | 36.0 |  | 
PCP-13.15: PCP-13 with deletion of terminal lysine ([dI][dL]G[dH][dR][dD][dY]) | complete loss of activity |  |  |  | 
PCP-13.17: PCP-13 with the glycine residue deleted ([dI][dL][dH][dR][dD][dY][dK]) | loss of activity |  |  |  | 
ILGHRDYK (Peptide antagonist derived from the sequence of the Prostaglandin F2-alpha receptor.) [PCP-13] | increased the inhibitory potency dramatically | 80.0 | 20.0 |  | 
ILGWRDYK (Peptide antagonist derived from the sequence of the Prostaglandin F2-alpha receptor.) [PCP-13.22] | did not result in significant reduction of peptide inhibitory potency | 83.4 | 16.6 |  | 
SNVLCSIF (Peptide antagonist derived from the sequence of the Prostaglandin F2-alpha receptor.) [PCP-15] |  | 88.1 | 11.9 |  | 
ILGHQDYK (Peptide antagonist derived from the sequence of the Prostaglandin F2-alpha receptor.) [PCP-13.18] | affected the activity of PCP-13 moderately | 70.0 | 30.0 |  | 
PCP-13.12: PCP-13 with D changed to E ([dI][dL]G[dH][dR][dE][dY][dK]) | loss of half of the inhibitory activity |  |  |  | 
PCP-13.10: PCP-13 with aromatic residue Y substituted with E ([dI][dL]G[dH][dR][dD][dE][dK]) | completely abolished the inhibitory potency |  |  |  | 
PCP-13.23: PCP-13 with H changed to Y ([dI][dL]G[dY][dR][dD][dY][dK]) | significant reduction of peptide inhibitory potency |  |  |  | 
PCP-13.9: PCP-13 with terminal lysine substituted with W ([dI][dL]G[dH][dR][dD][dY][dW]) | complete loss of activity |  |  |  | 
ILGHRDY-amide ([dI][dL]G[dH][dR][dD][dY]-NH2) [PCP-13.20] | moderate gain of activity | 50.4 | 49.6 |  | 
ILAHRDYK (Peptide antagonist derived from the sequence of the Prostaglandin F2-alpha receptor.) [PCP-13.7] | does not change the activity | 76.2 | 23.8 |  | 
ILaHRDYK ([dI][dL]A[dH][dR][dD][dY][dK]; not fully specified (residue 3); printed as ILaHRDYK) [PCP-13.8] | loss of activity | 53.2 | 46.8 |  | 
